Key:
Assay in all cases: ProtoArray methylated with G9a SET domain
[1] = target: AP1S1, G9a-methylated (human) (UniProt P61966)
[2] = target: C12orf23, G9a-methylated (human) (UniProt Q8WUH6)
[3] = target: C12orf62, G9a-methylated (human) (UniProt Q96I36)
[4] = target: C2orf43, G9a-methylated (human) (UniProt Q9H6V9)
[5] = target: CALN1, G9a-methylated (human) (UniProt Q9BXU9)
[6] = target: CDK5RAP3, G9a-methylated (human) (UniProt Q96JB5)
[7] = target: CDKL5, G9a-methylated (human) (UniProt O76039)
[8] = target: CLDN15, G9a-methylated (human) (UniProt P56746)
[9] = target: CNTD1, G9a-methylated (human) (UniProt Q8N815)
[10] = target: CSF3, G9a-methylated (human) (UniProt P09919)
[11] = target: CTSZ, G9a-methylated (human) (UniProt Q9UBR2)
[12] = target: CTXN1, G9a-methylated (human) (UniProt P60606)
[13] = target: DGKA, G9a-methylated (human) (UniProt P23743)
[14] = target: DYNC2LI1, G9a-methylated (human) (UniProt Q8TCX1)
[15] = target: FTH1 (hit 104), G9a-methylated (human) (UniProt P02794)
[16] = target: FTH1 (hit 109), G9a-methylated (human) (UniProt P02794)
[17] = target: GFOD1, G9a-methylated (human) (UniProt Q9NXC2)
[18] = target: GGPS1, G9a-methylated (human) (UniProt O95749)
[19] = target: GHRL, G9a-methylated (human) (UniProt Q9UBU3)
[20] = target: GYPC, G9a-methylated (human) (UniProt P04921)
[21] = target: HIC2, G9a-methylated (human) (UniProt Q96JB3)
[22] = target: HPCAL4, G9a-methylated (human) (UniProt Q9UM19)
[23] = target: KCTD7, G9a-methylated (human) (UniProt Q96MP8)
[24] = target: KIFC1, G9a-methylated (human) (UniProt Q9BW19)
[25] = target: KRR1, G9a-methylated (human) (UniProt Q13601)
[26] = target: LRRC20, G9a-methylated (human) (UniProt Q8TCA0)
[27] = target: LYRM7, G9a-methylated (human) (UniProt Q5U5X0)
[28] = target: MRPL21, G9a-methylated (human) (UniProt Q7Z2W9)
[29] = target: NME1, G9a-methylated (human) (UniProt P15531)
[30] = target: PAEP, G9a-methylated (human) (UniProt P09466)
[31] = target: PHF20L1, G9a-methylated (human) (UniProt A8MW92)
[32] = target: PSMA8, G9a-methylated (human) (UniProt Q8TAA3)
[33] = target: RAB33B, G9a-methylated (human) (UniProt Q9H082)
[34] = target: RPL14, G9a-methylated (human) (UniProt P50914)
[35] = target: RTN1, G9a-methylated (human) (UniProt Q16799)
[36] = target: SCGB2A2, G9a-methylated (human) (UniProt Q13296)
[37] = target: SH3YL1 (hit 65), G9a-methylated (human) (UniProt Q96HL8)
[38] = target: SNFT, G9a-methylated (human) (UniProt Q9NR55)
[39] = target: TGDS, G9a-methylated (human) (UniProt O95455)
[40] = target: TMED5, G9a-methylated (human) (UniProt Q9Y3A6)
[41] = target: TMEM32, G9a-methylated (human) (UniProt Q8N4V1)
[42] = target: VPS29, G9a-methylated (human) (UniProt Q9UBQ0)
[43] = target: WDR45, G9a-methylated (human) (UniProt Q9Y484)
[44] = target: YPEL5, G9a-methylated (human) (UniProt P62699)
[45] = target: ZRANB1, G9a-methylated (human) (UniProt Q9UGI0)
ZRANB1, G9a-methylated (human), sequence (Q9UGI0 whole entry): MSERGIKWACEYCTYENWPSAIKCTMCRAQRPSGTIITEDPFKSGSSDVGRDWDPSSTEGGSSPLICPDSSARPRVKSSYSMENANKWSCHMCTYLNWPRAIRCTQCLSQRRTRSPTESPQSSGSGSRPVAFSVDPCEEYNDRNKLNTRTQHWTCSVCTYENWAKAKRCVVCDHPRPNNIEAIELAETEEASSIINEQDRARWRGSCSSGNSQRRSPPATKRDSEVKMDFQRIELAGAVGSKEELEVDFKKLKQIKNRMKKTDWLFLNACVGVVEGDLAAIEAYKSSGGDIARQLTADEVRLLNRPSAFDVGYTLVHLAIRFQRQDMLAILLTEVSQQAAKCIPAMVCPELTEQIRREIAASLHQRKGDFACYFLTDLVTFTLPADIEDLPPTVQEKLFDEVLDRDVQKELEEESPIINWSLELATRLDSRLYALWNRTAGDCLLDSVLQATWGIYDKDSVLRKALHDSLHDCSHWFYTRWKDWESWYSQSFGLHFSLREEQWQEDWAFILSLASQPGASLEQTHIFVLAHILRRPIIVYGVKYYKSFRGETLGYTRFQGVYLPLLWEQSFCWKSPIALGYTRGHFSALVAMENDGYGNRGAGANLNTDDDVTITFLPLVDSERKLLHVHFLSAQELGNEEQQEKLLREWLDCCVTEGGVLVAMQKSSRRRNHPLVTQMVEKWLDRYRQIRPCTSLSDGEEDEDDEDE

TMEM32, G9a-methylated (human), sequence (Q8N4V1 whole entry): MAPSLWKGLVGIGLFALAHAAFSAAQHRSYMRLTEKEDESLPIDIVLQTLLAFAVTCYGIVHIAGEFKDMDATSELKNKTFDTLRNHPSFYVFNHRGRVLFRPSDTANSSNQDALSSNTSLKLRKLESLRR
HIC2, G9a-methylated (human), sequence (Q96JB3 whole entry): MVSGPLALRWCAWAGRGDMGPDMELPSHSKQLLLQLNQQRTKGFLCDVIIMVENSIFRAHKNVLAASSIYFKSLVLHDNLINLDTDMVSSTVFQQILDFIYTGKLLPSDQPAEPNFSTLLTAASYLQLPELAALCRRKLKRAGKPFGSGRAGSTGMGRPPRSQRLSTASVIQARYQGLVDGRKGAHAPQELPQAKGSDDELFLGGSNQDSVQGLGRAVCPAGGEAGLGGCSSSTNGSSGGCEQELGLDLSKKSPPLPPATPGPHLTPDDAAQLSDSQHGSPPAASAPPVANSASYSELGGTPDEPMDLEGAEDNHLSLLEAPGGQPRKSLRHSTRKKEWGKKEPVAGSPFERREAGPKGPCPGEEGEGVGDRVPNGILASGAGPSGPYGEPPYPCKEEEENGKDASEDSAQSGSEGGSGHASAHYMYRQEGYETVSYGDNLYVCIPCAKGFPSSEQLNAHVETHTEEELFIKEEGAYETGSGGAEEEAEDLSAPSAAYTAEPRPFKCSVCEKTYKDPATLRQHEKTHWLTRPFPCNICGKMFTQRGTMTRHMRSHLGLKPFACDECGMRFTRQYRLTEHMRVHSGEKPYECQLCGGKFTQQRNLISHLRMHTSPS
C2orf43, G9a-methylated (human), sequence (Q9H6V9 whole entry): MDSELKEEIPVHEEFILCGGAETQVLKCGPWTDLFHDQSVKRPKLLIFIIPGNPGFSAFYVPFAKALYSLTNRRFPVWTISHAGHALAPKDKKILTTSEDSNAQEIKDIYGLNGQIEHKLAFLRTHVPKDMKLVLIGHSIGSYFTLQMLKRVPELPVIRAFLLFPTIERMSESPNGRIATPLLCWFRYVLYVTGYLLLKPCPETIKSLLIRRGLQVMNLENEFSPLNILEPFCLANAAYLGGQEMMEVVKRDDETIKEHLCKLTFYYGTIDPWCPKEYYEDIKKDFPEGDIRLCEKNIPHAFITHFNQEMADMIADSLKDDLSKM
PAEP, G9a-methylated (human), sequence (P09466 19-180 limits assumed): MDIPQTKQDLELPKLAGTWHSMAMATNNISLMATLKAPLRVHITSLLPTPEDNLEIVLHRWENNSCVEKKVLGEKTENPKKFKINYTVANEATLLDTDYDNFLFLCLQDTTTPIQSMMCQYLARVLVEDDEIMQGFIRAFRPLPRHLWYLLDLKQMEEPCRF
RAB33B, G9a-methylated (human), sequence (Q9H082 whole entry): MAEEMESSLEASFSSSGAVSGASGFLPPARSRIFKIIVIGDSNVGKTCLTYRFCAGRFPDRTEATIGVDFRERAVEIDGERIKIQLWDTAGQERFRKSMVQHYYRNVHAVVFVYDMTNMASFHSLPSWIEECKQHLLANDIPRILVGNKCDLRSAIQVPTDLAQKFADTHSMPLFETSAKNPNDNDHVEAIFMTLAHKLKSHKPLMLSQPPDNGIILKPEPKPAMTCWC
KIFC1, G9a-methylated (human), sequence (Q9BW19 whole entry): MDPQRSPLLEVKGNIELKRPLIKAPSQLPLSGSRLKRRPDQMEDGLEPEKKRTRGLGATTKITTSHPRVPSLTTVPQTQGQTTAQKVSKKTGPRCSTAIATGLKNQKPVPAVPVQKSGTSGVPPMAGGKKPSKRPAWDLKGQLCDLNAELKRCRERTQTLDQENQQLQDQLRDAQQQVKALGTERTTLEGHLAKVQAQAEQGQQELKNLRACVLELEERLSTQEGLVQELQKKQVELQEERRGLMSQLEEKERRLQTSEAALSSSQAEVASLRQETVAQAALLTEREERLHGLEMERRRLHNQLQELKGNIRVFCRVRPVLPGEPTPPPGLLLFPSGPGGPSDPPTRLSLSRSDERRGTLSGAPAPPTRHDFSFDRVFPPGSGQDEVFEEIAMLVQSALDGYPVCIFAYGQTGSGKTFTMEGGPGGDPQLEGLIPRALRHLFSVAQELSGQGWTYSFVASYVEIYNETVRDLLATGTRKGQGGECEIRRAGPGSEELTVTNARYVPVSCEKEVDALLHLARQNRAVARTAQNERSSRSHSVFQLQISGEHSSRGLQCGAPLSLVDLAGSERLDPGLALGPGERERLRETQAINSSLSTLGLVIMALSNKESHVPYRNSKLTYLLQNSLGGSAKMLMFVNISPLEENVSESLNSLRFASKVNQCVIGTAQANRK
PHF20L1, G9a-methylated (human), sequence (A8MW92 other isoform, or with tags, fused parts or gaps limits assumed): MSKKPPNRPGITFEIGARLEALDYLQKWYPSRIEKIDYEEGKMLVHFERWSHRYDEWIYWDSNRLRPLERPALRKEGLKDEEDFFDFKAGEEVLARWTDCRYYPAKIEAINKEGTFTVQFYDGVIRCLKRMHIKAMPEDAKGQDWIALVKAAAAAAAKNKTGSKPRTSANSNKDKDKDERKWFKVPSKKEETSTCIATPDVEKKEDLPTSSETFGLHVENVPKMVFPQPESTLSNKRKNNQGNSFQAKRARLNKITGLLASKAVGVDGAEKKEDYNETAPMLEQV
NME1, G9a-methylated (human), sequence (P15531 whole entry): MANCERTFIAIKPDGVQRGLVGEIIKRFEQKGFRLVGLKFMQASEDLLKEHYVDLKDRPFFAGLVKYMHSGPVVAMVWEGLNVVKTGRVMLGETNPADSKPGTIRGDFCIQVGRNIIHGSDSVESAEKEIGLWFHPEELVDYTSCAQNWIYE
DGKA, G9a-methylated (human), sequence (P23743 whole entry): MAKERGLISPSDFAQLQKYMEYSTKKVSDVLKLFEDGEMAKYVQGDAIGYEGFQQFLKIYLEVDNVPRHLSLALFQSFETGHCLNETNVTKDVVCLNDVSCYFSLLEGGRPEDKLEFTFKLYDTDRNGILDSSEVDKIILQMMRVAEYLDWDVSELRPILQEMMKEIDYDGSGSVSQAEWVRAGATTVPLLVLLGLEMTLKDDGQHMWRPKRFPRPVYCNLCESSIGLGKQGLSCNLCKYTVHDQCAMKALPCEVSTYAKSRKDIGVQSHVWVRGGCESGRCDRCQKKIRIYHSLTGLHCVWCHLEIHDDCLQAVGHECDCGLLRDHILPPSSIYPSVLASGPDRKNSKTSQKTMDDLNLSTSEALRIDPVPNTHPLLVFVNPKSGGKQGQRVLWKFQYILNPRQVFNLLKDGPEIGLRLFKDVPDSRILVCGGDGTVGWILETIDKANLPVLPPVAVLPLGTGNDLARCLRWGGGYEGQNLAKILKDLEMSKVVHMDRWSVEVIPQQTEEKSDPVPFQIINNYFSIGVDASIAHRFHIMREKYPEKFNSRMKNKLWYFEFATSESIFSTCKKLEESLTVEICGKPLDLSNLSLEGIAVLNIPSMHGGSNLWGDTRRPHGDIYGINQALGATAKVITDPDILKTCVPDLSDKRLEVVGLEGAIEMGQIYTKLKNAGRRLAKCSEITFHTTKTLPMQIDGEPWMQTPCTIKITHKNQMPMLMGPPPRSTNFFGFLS
KRR1, G9a-methylated (human), sequence (Q13601 whole entry): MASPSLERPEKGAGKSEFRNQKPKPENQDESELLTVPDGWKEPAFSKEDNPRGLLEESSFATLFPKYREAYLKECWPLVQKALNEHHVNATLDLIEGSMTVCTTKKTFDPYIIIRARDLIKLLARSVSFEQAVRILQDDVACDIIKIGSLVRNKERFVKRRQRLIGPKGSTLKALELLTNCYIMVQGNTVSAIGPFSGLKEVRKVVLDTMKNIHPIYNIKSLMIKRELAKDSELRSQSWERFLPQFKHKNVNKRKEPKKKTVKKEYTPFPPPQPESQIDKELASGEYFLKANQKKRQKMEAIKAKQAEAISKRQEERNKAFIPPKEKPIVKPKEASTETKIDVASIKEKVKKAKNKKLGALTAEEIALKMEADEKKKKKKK
LYRM7, G9a-methylated (human), sequence (Q5U5X0 whole entry): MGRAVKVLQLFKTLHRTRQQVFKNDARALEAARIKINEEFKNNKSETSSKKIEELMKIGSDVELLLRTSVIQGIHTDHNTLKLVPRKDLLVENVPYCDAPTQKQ
YPEL5, G9a-methylated (human), sequence (P62699 whole entry): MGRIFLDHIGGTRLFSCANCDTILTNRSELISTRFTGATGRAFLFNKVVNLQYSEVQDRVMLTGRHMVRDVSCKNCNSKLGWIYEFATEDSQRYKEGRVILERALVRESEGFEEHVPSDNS
CTXN1, G9a-methylated (human), sequence (P60606 whole entry): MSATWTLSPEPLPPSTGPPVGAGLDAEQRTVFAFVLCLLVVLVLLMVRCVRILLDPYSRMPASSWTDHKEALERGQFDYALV
C12orf62, G9a-methylated (human), sequence (Q96I36 whole entry): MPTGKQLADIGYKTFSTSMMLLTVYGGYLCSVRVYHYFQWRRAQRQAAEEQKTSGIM
SCGB2A2, G9a-methylated (human), sequence (Q13296 19-93 limits assumed): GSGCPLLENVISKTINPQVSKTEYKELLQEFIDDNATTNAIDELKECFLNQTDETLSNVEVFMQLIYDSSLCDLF

3× Flag-3×MBT (designed binder)
G9a Average SNR [1]: 16.6 | G9a Average SNR [2]: 12.7 | G9a Average SNR [3]: 14.9 | G9a Average SNR [4]: 11.9 | G9a Average SNR [5]: 18.6 | G9a Average SNR [6]: 13.8 | G9a Average SNR [7]: 19.7 | G9a Average SNR [8]: 25 | G9a Average SNR [9]: 12.7 | G9a Average SNR [10]: 19 | G9a Average SNR [11]: 13.6 | G9a Average SNR [12]: 19.7 | G9a Average SNR [13]: 15.5 | G9a Average SNR [14]: 11.6 | G9a Average SNR [15]: 30.4 | G9a Average SNR [16]: 38.7 | G9a Average SNR [17]: 16.4 | G9a Average SNR [18]: 12.3 | G9a Average SNR [19]: 24.5 | G9a Average SNR [20]: 13.4 | G9a Average SNR [21]: 16.7 | G9a Average SNR [22]: 11.5 | G9a Average SNR [23]: 14.7 | G9a Average SNR [24]: 63.2 | G9a Average SNR [25]: 29.8 | G9a Average SNR [26]: 32.3 | G9a Average SNR [27]: 17.2 | G9a Average SNR [28]: 23.3 | G9a Average SNR [29]: 15.2 | G9a Average SNR [30]: 17.5 | G9a Average SNR [31]: 21.5 | G9a Average SNR [32]: 13.1 | G9a Average SNR [33]: 20.2 | G9a Average SNR [34]: 18.4 | G9a Average SNR [35]: 14.7 | G9a Average SNR [36]: 14.8 | G9a Average SNR [37]: 16.5 | G9a Average SNR [38]: 18.1 | G9a Average SNR [39]: 13.6 | G9a Average SNR [40]: 15.1 | G9a Average SNR [41]: 13.6 | G9a Average SNR [42]: 16.6 | G9a Average SNR [43]: 16.6 | G9a Average SNR [44]: 13.4 | G9a Average SNR [45]: 13.2

Reference: patent US20140274782A1, “AFFINITY REAGENTS AND METHODS FOR DETECTION, PURIFICATION, AND PROTEOMIC ANALYSIS OF METHYLATED PROTEINS” (The Board of Trustees of the Leland Stanford Junior …, priority 2013, published 2014)
